The subject of one series is ATP production. As to conditions: 1 mM fuel; cascade with ADH, formDH and FDH; polyphosphate; 200 μL.
Another series concerns the target T1, human NADK (Homo sapiens, UniProt O95544).
T1 sequence (O95544 1-446): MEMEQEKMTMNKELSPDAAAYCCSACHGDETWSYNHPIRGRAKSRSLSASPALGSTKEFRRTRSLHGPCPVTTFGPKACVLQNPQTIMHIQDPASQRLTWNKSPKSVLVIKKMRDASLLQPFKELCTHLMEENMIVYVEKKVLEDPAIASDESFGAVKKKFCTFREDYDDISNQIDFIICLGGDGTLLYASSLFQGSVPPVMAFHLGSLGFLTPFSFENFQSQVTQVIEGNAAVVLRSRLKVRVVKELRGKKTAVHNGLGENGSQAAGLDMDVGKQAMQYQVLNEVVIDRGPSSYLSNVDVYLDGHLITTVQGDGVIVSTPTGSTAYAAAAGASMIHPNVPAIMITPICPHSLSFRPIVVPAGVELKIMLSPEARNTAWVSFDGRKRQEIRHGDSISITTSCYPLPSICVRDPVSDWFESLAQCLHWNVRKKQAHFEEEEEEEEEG
As to conditions: cited from earlier work.

The target of series [1] is T2, B. subtilis polyphosphate NAD+ kinase (PPNK), recombinant, 6x-histidine tag (Bacillus subtilis, UniProt O31612).
T2 sequence (O31612 1-266): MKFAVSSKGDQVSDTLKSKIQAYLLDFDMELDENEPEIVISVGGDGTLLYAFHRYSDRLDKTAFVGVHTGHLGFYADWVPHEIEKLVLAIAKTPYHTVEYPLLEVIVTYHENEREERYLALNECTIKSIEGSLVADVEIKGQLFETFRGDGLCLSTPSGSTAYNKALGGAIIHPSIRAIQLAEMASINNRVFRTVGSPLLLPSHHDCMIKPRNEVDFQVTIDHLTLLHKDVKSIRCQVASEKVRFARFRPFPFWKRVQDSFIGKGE
Nature of the series: Kinetics of polyphosphate NAD+ kinase (PPNK), coupled to TPNOX, absorbance at 340 nm. As to conditions: 26° C., pH 7.8, 10 mM MgCl2, random bi-bi sequential.

Substrate in series [2]: NC(=O)c1ccc[n+]([C@@H]2O[C@H](COP(=O)([O-])OP(=O)(O)OC[C@H]3O[C@@H](n4cnc5c(N)ncnc54)[C@H](O)[C@@H]3O)[C@@H](O)[C@H]2O)c1
Description: Kinetics of formate dehydrogenase (FDH). The series is classed as biochemical, C. boidinii. As to conditions: other: abbreviated sequential mechanism; pH 7.4; 37.0 °C. The source says: (§1) The enzymes involved in the cascade were characterized. Kinetic parameters for the NADH-dependent dehydrogenases, PPNKs, NADPH oxidases, and NADKs included in the exemplary embodiments of the present disclosure are shown in Table I below.
(§2) The FDH from C. boidinii was expressed recombinantly in a pEt28a plasmid and purified according to the materials and methods.
(§3) For overexpression, the enzymes were transformed into BL21(DE3) E. coli cells (New England Biolabs). Overnight cultures of BL21(DE3) E. coli cells harboring the DNA in pET20b plasmids and pET28a plasmid for FDH and sfGFP, respectively, were transferred into 50 mL of LB medium with 100 μg/mL ampicillin at 37° C. Overexpression of the enzymes was induced by adding isopropyl-β-thiogalactopyranoside (IPTG) to a final concentration of 1 mM at an optical density (OD) of 0.6 at 600 nm. After 3 h of induction, the cells were harvested and sonicated in wash buffer A for TPNOX (10 mM imidazole, 300 mM NaCl, and 20 mM Tris-HCl pH 7.4) and wash buffer B for all other enzymes (40 mM imidazole, 300 mM NaCl, and 20 mM Tris-HCl pH 7.4). The cells were centrifuged at 7000 rpm for 1 h and 4° C. The protein was purified using a nickel-nitrilotriacetic acid (Ni-NTA) column with continuous elution up to 500 mM imidazole.

Substrate in series [3]: O=CO
Description: Kinetics of formate dehydrogenase (FDH). The conditions noted are these: other: abbreviated sequential mechanism; pH 7.4; 37.0 °C. Type of series: biochemical, C. boidinii.
From the text: as §1, §2, §3

Substrate in series [4]: NC(=O)c1ccc[n+]([C@@H]2O[C@H](COP(=O)([O-])OP(=O)(O)OC[C@H]3O[C@@H](n4cnc5c(N)ncnc54)[C@H](OP(=O)(O)O)[C@@H]3O)[C@@H](O)[C@H]2O)c1
Description: purified protein, by the assay type. As to conditions: other: reverse direction; random bi-bi sequential mechanism.

Substrate in series [5]: Nc1ncnc2c1ncn2[C@@H]1O[C@H](COP(=O)(O)OP(=O)(O)O)[C@@H](O)[C@H]1O
Nature of the series: purified protein, by the assay type. The conditions noted are these: other: reverse direction; random bi-bi sequential mechanism. Type of series: biochemical, pigeon. From the text: The ATP-producing NADK has been predominantly studied in the forward direction (consuming ATP) since the observed isoforms, such as the human NADK, are irreversible. Without wishing to be bound by theory, one form, pigeon NADK, follows a random bi-bi sequential mechanism and the kinetic parameters for the reverse direction are found in Table I.
Synthetic pigeon, duck, and cat NADK genes and a cloned human NADK gene all with C-terminal 6×-histidine tags were expressed E. coli and purified to apparent homogencity. The pigeon enzyme shares 85% sequence homology with the human enzyme, while the duck and pigeon enzymes are 96% sequence homology. The cat enzyme shares a 91% sequence homology to the human enzyme.
Referring now to FIGS. 3A-3B, initial rate kinetic experiments were performed with pigeon, duck, cat, and human NADK enzymes in both the forward and reverse directions. […] In FIG. 3B, the production of ATP was detected in a coupled reaction with firefly luciferase where ATP was converted to light, the relative luminescence (RLU) was monitored, and a standard curve was used to calculate the ATP concentration. […]
ATP production was measured using firefly luciferase. […] The luminescence was measured in a plate reader in 26° C. in a solution containing 10 mM Tris-HCl, pH 7.8, and 10 mM MgCl2. The ATP produced was calculated from luminescence using a calibration plot. […]

Substrate in series [6]: NC(=O)C1=CN([C@@H]2O[C@H](COP(=O)(O)OP(=O)(O)OC[C@H]3O[C@@H](n4cnc5c(N)ncnc54)[C@H](O)[C@@H]3O)[C@@H](O)[C@H]2O)C=CC1
Description: purified protein, by the assay type. As to conditions: 26° C., pH 7.8, 10 mM MgCl2, random bi-bi sequential, pH 7.8, 26.0 °C.

Substrate in series [7]: Nc1ncnc2c1ncn2[C@@H]1O[C@H](COP(=O)(O)OP(=O)(O)OP(=O)(O)O)[C@@H](O)[C@H]1O
Nature of the series: purified protein, by the assay type. The conditions noted are these: other: cosubstrate NADH, 26° C., pH 7.8, 10 mM MgCl2, random bi-bi sequential.

In the next series the test system is NADK. Nature of the series: Initial rate kinetic experiments with pigeon, duck, cat and human NADK enzymes, forward and reverse directions. Type of series: biochemical. The conditions noted are these: reverse direction (NADP^+ + ADP to NAD^+ + ATP); recombinant enzyme. The protocol: Recombinantly-expressed NADKs were explored for their reversible activities. It was hypothesized that the reversibility of the pigeon enzyme would enable compensation for the high picolinic acid […] (PC) activity present in pigeon livers, which inhibits NAD^+ biosynthesis from dietary tryptophan. […] It was determined that human NADK has an affinity for NAD^+ that is about 600 times higher than the pigeon, duck and cat isoforms. Without wishing to be bound by theory, NAD^+ serves as a product inhibitor for the reverse human NADK activity, which accounts for the observed irreversible behavior. While each of the NADKs explored were “reversible,” the reverse activity of the human enzyme is impeded via product inhibition. […]
Referring now to FIGS. 3A-3B, initial rate kinetic experiments were performed with pigeon, duck, cat, and human NADK enzymes in both the forward and reverse directions. […] In FIG. 3B, the production of ATP was detected in a coupled reaction with firefly luciferase where ATP was converted to light, the relative luminescence (RLU) was monitored, and a standard curve was used to calculate the ATP concentration.

The source of these data is US20240318218A1 (The Trustees of Columbia University in The City of New York, priority 2023, published 2024).

The term kcat denotes the number of substrate molecules converted per active site and unit of time at saturation. In general, Km refers to the substrate concentration at which the rate is half of its maximum.

With `O=CO` [formate], the ATP production rate with ATP production is 1.3×10^7 total RLU/h.
On to `NC(=O)C1=CN([C@@H]2O[C@H](COP(=O)(O)OP(=O)(O)OC[C@H]3O[C@@H](n4cnc5c(N)ncnc54)[C@H](OP(=O)(O)O)[C@@H]3O)[C@@H](O)[C@H]2O)C=CC1` [NADPH], for which the “inhibition of human NADK” value on human NADK was “inhibited”.
As to `NC(=O)c1ccc[n+]([C@@H]2O[C@H](COP(=O)([O-])OP(=O)(O)OC[C@H]3O[C@@H](n4cnc5c(N)ncnc54)[C@H](OP(=O)(O)O)[C@@H]3O)[C@@H](O)[C@H]2O)c1` [NADP^+], the “inhibition of human NADK” value on human NADK was “not”.
Consider `NC(=O)C1=CN([C@@H]2O[C@H](COP(=O)(O)OP(=O)(O)OC[C@H]3O[C@@H](n4cnc5c(N)ncnc54)[C@H](O)[C@@H]3O)[C@@H](O)[C@H]2O)C=CC1` [NADH], for which, on human NADK, the “inhibition of human NADK” value is reported as “inhibited”. Besides, the kcat entry is listed as “(2.6 ± 1.9) × 10^2 min^−1” in [1] (substrates NADH and ATP); “(5.6 ± 2.6) × 10^2 min^−1” in [1] (substrates NADH and poly(P) (sodium metaphosphate)).
`CO` [methanol]: the ATP production rate in the series on ATP production was 7.2×10^7 total RLU/h.

B1: C. boidinii formate dehydrogenase (FDH), recombinant ([Candida] boidinii) (protein)
chain: MKIVLVLYDAGKHAADEEKLYGCTENKLGIANWLKDQGHELITTSDKEGETSELDKHIPDADIIITTPFHPAYITKERLDKAKNLKLVVVAGVGSDHIDLDYINQTGKKISVLEVTGSNVVSVAEHVVMTMLVLVRNFVPAHEQIINHDWEVAAIAKDAYDIEGKTIATIGAGRIGYRVLERLLPFNPKELLYYDYQALPKEAEEKVGARRVENIEELVAQADIVTVNAPLHAGTKGLINKELLSKFKKGAWLVNTARGAICVAEDVAAALESGQLRGYGGDVWFPQPAPKDHPWRDMRNKYGAGNAMTPHYSGTTLDAQTRYAEGTKNILESFFTGKFDYRPQDIILLNGEYVTKAYGKHDKK
notes: made in house; host or cells: E. coli BL21(DE3)
Consider B1, for which, in series [2], the Km worked out at 30 ± 2 µM and the kcat result is on record as “(3.4 ± 0.1) × 10^2 min^−1”. For the same molecule, the Km in series [3] was 4000 ± 60 µM.

B2: pigeon NADK (ATP-NAD+ kinase), recombinant, C-terminal 6x-histidine tag (Columba livia) (protein)
chain: MEMNRDKLCPGKADVSSDSAYHCSTCHDDEEWSNTSRGRAKSRSLSASPALGSTKEFRRTRSLHGPCPVTTFGPKACMLQNPKTIMHIQDPASQRLTWNKPPKSVLVIKKIRDASLLQPFKELCVYLTEENNMIVYVEKKVLEDPAIANDDNFGPVKKKFCTFREDYDDISNQIDFIICLGGDGTLLYASSLFQGSVPPVMAFHLGSLGFLTPFNFENFQSQVTQVIEGNAALVLRSRLKVKVVKEHREKTTVQNGIEENGVVSANIEKEVGKQIMQYQVLNEVVVDRGPSSYLSNVDVFLNGHLITTVQGDGVIVSTPTGSTAYAAAAGASMIHPNVPAIMITPICPHSLSFRPIVVPAGVELKIMLSPDARNTAWVSFDGRKRQEICHGDSISITTSCYPLPSICFRDPVSDWFESLAECLHWNVRKKQNNFAVEEEEF
Regarding B2, in [4], the Michaelis constant (Km) stood at 730 ± 160 µM and the kcat came out at 0.145 ± 0.06 s⁻¹. Besides, the Km in series [5] was 27000 ± 10000 µM.

B3: B. subtilis polyphosphate NAD+ kinase (PPNK), recombinant, 6x-histidine tag (Bacillus subtilis subsp. subtilis str. 168) (protein)
chain: T2 sequence (O31612 1-266)
With B3, the figures for the Km in series [6] (other: cosubstrate ATP), in series [6] (other: cosubstrate poly(P) (sodium metaphosphate)) and in series [7] were 1700 ± 1400 µM, 1200 ± 600 µM and 1400 ± 1110 µM, respectively.

B4: human NADK: cloned human ATP-NAD^+ kinase with C-terminal 6×-histidine tag (protein, UniProt O95544 1-446, looked up)
NAD kinase: T1 sequence (O95544 1-446)
For B4, in the series on NADK, the “reverse NADK activity” value was “no measurable activity in the reverse direction”.
